Measurements published in the nanobody polyreactivity screen of Harvey et al. (2022).

Test: yeast display, Sf9 membrane polyspecificity reagent, FACS + sequencing; frameworks hold sequencing errors
Method in brief: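 A synthetic nanobody library was expressed on Saccharomyces cerevisiae BJ5465 by galactose induction for 36–48 hours. The library was stained for 1 hour at 4 °C with 10% biotinylated, detergent-solubilized Sf9 membrane reagent and enriched with streptavidin microbeads before FACS. Low and high (top ~1%) gates were set on anti-HA fluorescence for expression and streptavidin fluorescence for reagent binding, and each polyreactivity label reflects the gate of origin.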
With “QVQLVESGGGLVQAGGSLRLSCAASGRIFDTNVMGWYRQAPGTEREFVAAIRWNGGSTNYADSVKGRFTISRDNAKNTVYLQMNSLKPEDTAVYYCAADGSIGWRHIYEYWGQATQVTVSS” the “polyreactivity (PSR sort gate)” value was “low polyreactivity”.
In the case of “QVQLVESGGGLVQAGGSLRLSCAASGRIFDVNAMGWYRQAPGKERELVAAITYSDGSTYYADSVKGRFTISRDNAKNTVYLQMNSLKPEDTAVYYCAATQEPVTPQPYGYWGQGTQVTVSS”, the “polyreactivity (PSR sort gate)” value is reported as “low polyreactivity”.
In the case of “QVQLVESGGGLVQAGGSLRLSCAASGRIFDVYAMGWYRQAPGKERELVAAITGSGGSTYYADSVKGRFTISRDNAKNTVYLQMNSLKPEDTAVYYCNAVGIWFPIRLIVPYDYWGQGTQVTVSS”, the “polyreactivity (PSR sort gate)” value is reported as “low polyreactivity”.
With “QVQLVESGGGLVQAGGSLRLSCAASGRIFDWYAMGWYRQAPGKERELVAAISTSGANTYYADSVKGRITISRDNAKNTVYLQMNSLKPEDSGVYYCATDPYQPYEGDYWGQGTQVTVSS” the “polyreactivity (PSR sort gate)” value was “low polyreactivity”.
For “QVQLVESGGGLVQAGGSLRLSCAASGRIFDWYAMGWYRQAPGKERELVAAITTSADRTYYADSVKGRFTISRDNAKNTVYLQMNSMKPEDTAVYYCNADAFGGYDEYDYWGQGTQVTVSS”, the “polyreactivity (PSR sort gate)” value was “low polyreactivity”.
In the case of “QVQLVESGGGLVQAGGSLRLSCAASGRIFDYNAMGWYRQAPAKERELVAAITWSGGSTHYADSVKGRFTISRDNAKNTVYLQMKSLKPEDTAVYYCAADIGGDYLVFYYRGGYDYWGQGNQVTVSS”, the “polyreactivity (PSR sort gate)” value is reported as “low polyreactivity”.
For “QVQLVESGGGLVQAGGSLRLSCAASGRIFDYNAMGWYRQAPGKERELVAAINSGGSTYADSVKGRFTISRDNAKNTVYLQMNSLNPEDTAVYYCAKSLGQTDWEYDSWGQGTQVTVSS”, the “polyreactivity (PSR sort gate)” value was “low polyreactivity”.
For “QVQLVESGGGLVQAGGSLRLSCAASGRIFDYNDMGWYRQAPGTERELVAGISSGGSTYYADSVKGRFTISRDNAKNTVYLQMNSLKPEDTAVYYCAAGGRPYRGYGYWGQGTQVTVSS”, the “polyreactivity (PSR sort gate)” value was “high polyreactivity”.
With “QVQLVESGGGLVQAGGSLRLSCAASGRIFDYNTMGWYRQAPGKERELVAAITGGTGSTYYADSVKGRFTISRDNAKNTVYLQMNSLKPEDTAVYYCAAGFHKRVSPEILYDYWGQGTLVTVSS” the “polyreactivity (PSR sort gate)” value was “low polyreactivity”.
With “QVQLVESGGGLVQAGGSLRLSCAASGRIFDYNVMGWYRQAPGKERELVADINGSGGGTNYADSVKGRFTISRDNAKNTVYLQINTLKPEDTAVYYCNADSYEYHVPYYDYRYDYCGQGTQVTVSS” the “polyreactivity (PSR sort gate)” value was “low polyreactivity”.
For “QVQLVESGGGLVQAGGSLRLSCAASGRIFDYYAMAWYRQAPGKERELVSAISSNGVSTYYADSVKGRFTISRDNPKNTVYLQMNSLKPEDTAVYYCAADPTRHSSFPQYDSWGQGTQVTVSS”, the “polyreactivity (PSR sort gate)” value was “low polyreactivity”.
In the case of “QVQLVESGGGLVQAGGSLRLSCAASGRIFDYYAMGSYRQAPGNERELVDAISSGDNTYYADSVKGRFTISRDNAKNTVYLQMNSLKPEDTAVYYCAADVSRFGYYGIGFYYWRQGTQVTVSS”, the “polyreactivity (PSR sort gate)” value is reported as “low polyreactivity”.
For “QVQLVESGGGLVQAGGSLRLSCAASGRIFDYYAMGWYRQAPGKERELVAAISLIGASTYYADSVKGRFTISRDNAKNSVYLQMNSLKQEDPAVDYCAAQYAFEVPGYYREDYYWGQGTQVTVSS”, the “polyreactivity (PSR sort gate)” value was “low polyreactivity”.
For “QVQLVESGGGLVQAGGSLRLSCAASGRIFDYYAMGWYRQAPGKERELVAGITSDGDITYYADSVKGRFTISRDNAKNTVYLQMNSLKPEDTAVYYCAADSPHPVRYDYWGQGTQVTVSS”, the “polyreactivity (PSR sort gate)” value was “low polyreactivity”.
In the case of “QVQLVESGGGLVQAGGSLRLSCAASGRIFDYYAMGWYRQAPGKERELVARISIGGSTYADSVKGRFTISRDNAKNTVYLQMNSLKPEDSAVDYCADSTIRLVGYRTYWGPRYDYWGQGTQVTVSS”, the “polyreactivity (PSR sort gate)” value is reported as “low polyreactivity”.
In the case of “QVQLVESGGGLVQAGGSLRLSCAASGRIFDYYAMGWYRQAPGKERELVARITSGGTTNYADSVKGRFTISRDNAKNPVYLQMNSLKPEDTAVYYCAADVYGTVRRVGWYYVGEGYDYWGQGTQVTVSS”, the “polyreactivity (PSR sort gate)” value is reported as “low polyreactivity”.
In the case of “QVQLVESGGGLVQAGGSLRLSCAASGRIFEDNGMGWYRQAPGKEREFVATISWDGDRTYYADSVKGRFTISRDNAKNTVYFQMNSLKPEDTAVYYCNADLPLWPFRGYEYWGQGTQVTVSS”, the “polyreactivity (PSR sort gate)” value is reported as “low polyreactivity”.
For “QVQLVESGGGLVQAGGSLRLSCAASGRIFEDYMVWYRHAPGKDRELVAAIRWSGGGTYYADSVKGRFTISRDNAKNTVYLQMTSLKPEDTAVYYCATPGTGSVEVYGYWGQGTQVTVSS”, the “polyreactivity (PSR sort gate)” value was “low polyreactivity”.
In the case of “QVQLVESGGGLVQAGGSLRLSCAASGRIFEGYAMGWYRPAPGKQRELVAAISKSGGRTNYADSVKGRFTISRDNAKNTVYLQMNSLKPEDSAVYYCNAGIKYWGSDFFYWGQVTQVTVSS”, the “polyreactivity (PSR sort gate)” value is reported as “high polyreactivity”.
For “QVQLVESGGGLVQAGGSLRLSCAASGRIFEHNAMGWSRQAPGKEMEFVAAISSSGGSTYYADSVKGRFTISRDNAKNTVYLQMNSLKPEDTAVYYCNAGSTYYERNYWGQGTQVTVSS”, the “polyreactivity (PSR sort gate)” value was “low polyreactivity”.
In the case of “QVQLVESGGGLVQAGGSLRLSCAASGRIFEINAMGWYRQAPGKERELVAAITRSGGSTYYADSVKGRFTISRDNAKNTVYLQMNSLKPEDTAVYYCAARGRYWYSRYYSWGQGTQVTVSS”, the “polyreactivity (PSR sort gate)” value is reported as “high polyreactivity”.
For “QVQLVESGGGLVQAGGSLRLSCAASGRIFEPYTMGWYRQAPGKEREFVATITASGDSTYYADSVKGRFTISRDNAKNTVFLQMNSLKPEDTAVYYCAAAPFGGYEYDYWGQGTQVTVSS”, the “polyreactivity (PSR sort gate)” value was “high polyreactivity”.
With “QVQLVESGGGLVQAGGSLRLSCAASGRIFERNAMGWYRQAPGKERELVAAITYNGGRTYYAVSVKGRFTISRDNAKNTVYLQINSQKPEDTAVYYYNAQSRVTRSSYRGSPRYDYWGQGTQVTVSS” the “polyreactivity (PSR sort gate)” value was “high polyreactivity”.
With “QVQLVESGGGLVQAGGSLRLSCAASGRIFERYAMGWYRQAPGKERELVAAISYRGGRTYYADSVKGRFTISRDNAKNTVYLQMNSLKPEDTAVYYCAAVEVRRVADYGFGLLDYWGQGSQVTVSS” the “polyreactivity (PSR sort gate)” value was “high polyreactivity”.
In the case of “QVQLVESGGGLVQAGGSLRLSCAASGRIFEVYVMGWYRQAPGKERELVAAITTSGGSTYYADSVKGRFTISRDNAKNTVYLQMNSLKPEDTAVYYCNRYWHLAGSWGQGTQVTVSS”, the “polyreactivity (PSR sort gate)” value is reported as “low polyreactivity”.
For “QVQLVESGGGLVQAGGSLRLSCAASGRIFEYYAMGWYRQAPGKERELVAAINSSGGSTYYADSVKGRFTISRDNAKNTVYLQMNSLKPEDTAVYYCAARSYASPGWRYEYWGQGTQVTVSS”, the “polyreactivity (PSR sort gate)” value was “low polyreactivity”.
With “QVQLVESGGGLVQAGGSLRLSCAASGRIFFDYAMGWYRQAPGKERELVADIDWSGGITYYADSVKGRFTISRDNAKNTVYLQMNSLIPEDTAVYYCAADFDELYPTTAYGEFEYWGQGTQVTVSS” the “polyreactivity (PSR sort gate)” value was “high polyreactivity”.
With “QVQLVESGGGLVQAGGSLRLSCAASGRIFFDYAMGWYRQAPGKERELVADISYNGGSTNYADSVKGRFTISRDNAKNTLYLQMNSLKPEDTADYYCNRAFVPVYDLDYYWGQGTQVTVSS” the “polyreactivity (PSR sort gate)” value was “low polyreactivity”.
In the case of “QVQLVESGGGLVQAGGSLRLSCAASGRIFFGYAMGWYRQAPGKERELVAAITRRGTITHYADSVKGRFTISRDNAKNTVYLQMNSLKPEDTAVYYCNTVYARYSTAPGYNYWGQGTQVTVSS”, the “polyreactivity (PSR sort gate)” value is reported as “high polyreactivity”.
In the case of “QVQLVESGGGLVQAGGSLRLSCAASGRIFFIYAMGWYRQAPGKERELVAGINRTGGSTYYADSVKGRFTISRDNAKNTVYLQMNSLKPEDTAVYYCAAVSYYASDYRYDYWGQGTQVTVSS”, the “polyreactivity (PSR sort gate)” value is reported as “low polyreactivity”.
For “QVQLVESGGGLVQAGGSLRLSCAASGRIFFLYAMGWYRQAPGKERELVAAITWSADGTYYADSVKGRFTISRDNAKNTVYLQMNSLKPEDTAVYYCNADAYTTASSYNWWYYYWGQGTQVTVSS”, the “polyreactivity (PSR sort gate)” value was “low polyreactivity”.
With “QVQLVESGGGLVQAGGSLRLSCAASGRIFFNYAMGWYRQAPGKVRELVASITWRGGNTYYADSVKGRFTISRDNAKNTVYLQMNSLKPEDTAVYYCAASIRRAGRTYYYWGQGTQVTVSS” the “polyreactivity (PSR sort gate)” value was “high polyreactivity”.
In the case of “QVQLVESGGGLVQAGGSLRLSCAASGRIFFPYYTMGWYRQAPGKERELVAVISSSGSSTYYADSVKGRFTISRDNAKNTVYLQMNSLKPEDTAVYFCNAYGGVSTRLRGDYWGQGTQVTVSS”, the “polyreactivity (PSR sort gate)” value is reported as “high polyreactivity”.
For “QVQLVESGGGLVQAGGSLRLSCAASGRIFFRYAMGWYRQAPGKEREFVAAISCTGGSTYYADSVKGRFTISRDNAKNTVYLQMNSLKPEDTAVYYCAASVVSRPTYYAYYYWGQGTQVTVSS”, the “polyreactivity (PSR sort gate)” value was “high polyreactivity”.
In the case of “QVQLVESGGGLVQAGGSLRLSCAASGRIFFSYDMGWYTQAPGKERELVAAIDYIAGNTYYADSVKGRFTISRDNAKNTVYLQMNSLKPEDTAVYYCAADVLDWYDLLRDDYWGQGTQVTVSS”, the “polyreactivity (PSR sort gate)” value is reported as “low polyreactivity”.
With “QVQLVESGGGLVQAGGSLRLSCAASGRIFFTNAMGWYRQAPGKERELGAAIRFSGGRTYYADSVKGRFTISGDNAKNTVYLQMNSLKPEDTAVYYCAADPPRTRYRNARFDYWGQGTQVTVSS” the “polyreactivity (PSR sort gate)” value was “high polyreactivity”.
With “QVQLVESGGGLVQAGGSLRLSCAASGRIFFTNAMGWYRQAPGKERELVAAIRSSGGRTYYADSVKGRFTISRDNAKNTVYLQMNSLKPEDTAVYYCNVVDGRHISHYNYWGQGTQVTVSS” the “polyreactivity (PSR sort gate)” value was “high polyreactivity”.
For “QVQLVESGGGLVQAGGSLRLSCAASGRIFFTNAMGWYRQAPGKERELVAAITSTGSRTYYADSVKGRFTISRDNAKNTVYLQMNSLKPEDTAVYYCNRVSHLDYYWGQGTQVTVSS”, the “polyreactivity (PSR sort gate)” value was “high polyreactivity”.
With “QVQLVESGGGLVQAGGSLRLSCAASGRIFFTNAMGWYRQAPGKETELVASIDDTGSTNYADSVKGRFTISRDNAKNTVYLQMNSLKPEDTAVYYCNGVYYSYRYGHDYWGQGTQVTVSS” the “polyreactivity (PSR sort gate)” value was “low polyreactivity”.
In the case of “QVQLVESGGGLVQAGGSLRLSCAASGRIFFTNDMGWYRQAPGKERELVATITGNGASTFYADSVKGRFTISRDNAKNTVYLQMNSLKPEDSAVYYCNADRSSYPRYDYWGQGTLVTVSS”, the “polyreactivity (PSR sort gate)” value is reported as “low polyreactivity”.
In the case of “QVQLVESGGGLVQAGGSLRLSCAASGRIFFTYVMGWYRQAPGKEREFVAAITFSDGTTYYADSVKGRFTISRDNAKNTVYLQMNSLKPEDTAVYYCNTDSFYGFVYPWTISSEVDYWGQGTQVTVSS”, the “polyreactivity (PSR sort gate)” value is reported as “low polyreactivity”.
For “QVQLVESGGGLVQAGGSLRLSCAASGRIFFVNAMGWYRQAPGKERELVAAISRGGSTNYADSVKGRFTISRDNAKNTVYLQMNSLKPEDTAVFYCNADGSSYWYPVPLDGGDYWGQGTQVTVSS”, the “polyreactivity (PSR sort gate)” value was “low polyreactivity”.
With “QVQLVESGGGLVQAGGSLRLSCAASGRIFFYNDMGWYRQAPGKERELVASISSGTSTYYADSVKGRFTISRDNAKNTVYLQMNSLKPEDTAVYYCATGRPWHYSSATYDYWGQGTQVSVSS” the “polyreactivity (PSR sort gate)” value was “low polyreactivity”.
